Measured values: US20210047420A1 (TUSK THERAPEUTICS, published 2021)
Read-outs that look alike come from different tables or passages of the source. Blank lines part the entries; values can stand above or below the binder they belong to.

Legend:
[1] = biological target: T1, recombinant human CD25 his tagged (UniProt P01589 22-240); experiment: SPR (Biacore 2000)
T1 chain: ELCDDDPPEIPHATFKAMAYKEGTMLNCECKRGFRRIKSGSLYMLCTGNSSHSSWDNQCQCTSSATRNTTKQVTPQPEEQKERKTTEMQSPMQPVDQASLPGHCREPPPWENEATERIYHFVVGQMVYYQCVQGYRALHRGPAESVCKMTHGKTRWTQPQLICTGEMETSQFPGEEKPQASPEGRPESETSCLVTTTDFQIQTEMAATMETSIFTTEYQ

[2] = biological target: T2, recombinant human CD25 his tagged (human, UniProt P01589 22-240, limits assumed); experiment: Octet sequential binding, rhCD25 his tagged on Ni-NTA biosensors, first antibody
T2 construct: also called rhCD25 his tagged; rhCD25; not shown: his tag
T2 sequence: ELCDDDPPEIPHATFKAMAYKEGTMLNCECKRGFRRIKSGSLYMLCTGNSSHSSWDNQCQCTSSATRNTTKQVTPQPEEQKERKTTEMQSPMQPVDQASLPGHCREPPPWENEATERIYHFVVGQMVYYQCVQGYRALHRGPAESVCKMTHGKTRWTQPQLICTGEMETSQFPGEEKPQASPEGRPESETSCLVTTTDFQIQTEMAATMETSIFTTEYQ

[3] = biological target: T1, recombinant human CD25 his tagged; experiment: SPR (Biacore 2000)
[4] = biological target: T1, recombinant human CD25 his tagged; experiment: SPR (Biacore 2000)
[5] = biological target: T1, recombinant human CD25 his tagged; experiment: SPR (Biacore 2000)

B1: Antibody 10 (antibody, human IgG1, V domains shown)
VH: QVQLVESGGGVVQPGGSLRLSCAVSGFSLTSYGIQWVRQAPGKGLEWVSVIWAGGSTNYNSALMSRFTISKDNSKSTLYLQMNSLRAEDTAVYYCARAYGYDGSWLAYWGQGTLVTVSS
VL: QIVLTQSPATLSLSPGERATLSCRASSSVSYMHWYQQKPGQAPRPLIFATSNLASGIPARFSGSGSGTDYTLTISSLEPEDFAVYYCQQWSSNPPTFGGGTKLEIK
notes: also called Ab10; Antibody 10-hIgG1
Kd [1]: 7.6 nM
binding result [2]: binds

B2: Antibody 9 (antibody, V domains shown)
VH: QVQLVESGGGVVQPGGSLRLSCAVSGFSLTSYGIQWVRQAPGKGLEWVSVIWAGGSTNYNSALMSRFTISKDNSKSTLYLQMNSLRAEDTAVYYCARAYGYDGSWLAYWGQGTLVTVSS
VL: EIVLTQSPATLSLSPGERATLSCRASSSVSYMHWYQQKPGQAPRPLIFATSNLASGIPARFSGSGSGTDFTLTISSLEPEDFAVYYCQQWSSNPPTFGGGTKLEIK
Kd [3]: 8.8 nM

B4: Antibody 1 (antibody, V domains shown)
VH: QVQLQESGPGLVKPSETLSLTCTVSGFSLTSYGIQWIRQPPGKGLEWIGVIWAGGSTNYNSALMSRVTISKDNSKNQFSLKLSSVTAADTAVYYCARAYGYDGSWLAYWGQGTLVTVSS
VL: EIVLTQSPATLSLSPGERATLSCRASSSVSYMHWYQQKPGQAPRPLIFATSNLASGIPARFSGSGSGTDFTLTISSLEPEDFAVYYCQQWSSNPPTFGGGTKLEIK
Kd [4]: 1.2 nM

B10: Antibody 12 (antibody, V domains shown)
VH: QVQLVESGGGVVQPGGSLRLSCAVSGFSLTSYGIQWVRQAPGKGLEWVSVIWAGGSTNYNSALMSRFTISKDNSKSTLYLQMNSLRAEDTAVYYCARAYGYDGSWLAYWGQGTLVTVSS
VL: QIQLTQSPSSLSASVGDRVTITCRASSSVSYMHWYQQKPGKSPKPLIFATSNLASGVPSRFSGSGSGTDYTLTISSLQPEDFATYYCQQWSSNPPTFGGGTKLEIK
Kd [1]: 6.9 nM

B11: Antibody 8 (antibody, V domains shown)
VH: QVQLQESGPGLVKPSETLSLTCTVSGFSLTSYGIQWVRQPPGKGLEWIGVIWAGGSTNYNSALMSRVTISKDNSKSQFSLKLSSVTAADTAVYYCARAYGYDGSWLAYWGQGTLVTVSS
VL: QIQLTQSPSSLSASVGDRVTITCRASSSVSYMHWYQQKPGKSPKPLIFATSNLASGVPSRFSGSGSGTDYTLTISSLQPEDFATYYCQQWSSNPPTFGGGTKLEIK
Kd [3]: 1.7 nM

B12: Antibody 3 (antibody, V domains shown)
VH: QVQLQESGPGLVKPSETLSLTCTVSGFSLTSYGIQWIRQPPGKGLEWIGVIWAGGSTNYNSALMSRVTISKDNSKNQFSLKLSSVTAADTAVYYCARAYGYDGSWLAYWGQGTLVTVSS
VL: DIQMTQSPSSLSASVGDRVTITCRASSSVSYMHWYQQKPGKAPKPLIFATSNLASGVPSRFSGSGSGTDYTLTISSLQPEDFATYYCQQWSSNPPTFGGGTKLEIK
Kd [4]: 0.3 nM

Now from value to binder:

Kd [3]: 2.1 nM
B3: Antibody 7 (antibody, V domains shown)
VH: QVQLQESGPGLVKPSETLSLTCTVSGFSLTSYGIQWVRQPPGKGLEWIGVIWAGGSTNYNSALMSRVTISKDNSKSQFSLKLSSVTAADTAVYYCARAYGYDGSWLAYWGQGTLVTVSS
VL: DIQMTQSPSSLSASVGDRVTITCRASSSVSYMHWYQQKPGKAPKPLIFATSNLASGVPSRFSGSGSGTDYTLTISSLQPEDFATYYCQQWSSNPPTFGGGTKLEIK

Kd [5]: 2.9 nM
B5: Antibody 6 (antibody, V domains shown)
VH: QVQLQESGPGLVKPSETLSLTCTVSGFSLTSYGIQWVRQPPGKGLEWIGVIWAGGSTNYNSALMSRVTISKDNSKSQFSLKLSSVTAADTAVYYCARAYGYDGSWLAYWGQGTLVTVSS
VL: QIVLTQSPATLSLSPGERATLSCRASSSVSYMHWYQQKPGQAPRPLIFATSNLASGIPARFSGSGSGTDYTLTISSLEPEDFAVYYCQQWSSNPPTFGGGTKLEIK

Kd [4]: 4.8 nM
B6: Antibody 2 (antibody, V domains shown)
VH: QVQLQESGPGLVKPSETLSLTCTVSGFSLTSYGIQWIRQPPGKGLEWIGVIWAGGSTNYNSALMSRVTISKDNSKNQFSLKLSSVTAADTAVYYCARAYGYDGSWLAYWGQGTLVTVSS
VL: QIVLTQSPATLSLSPGERATLSCRASSSVSYMHWYQQKPGQAPRPLIFATSNLASGIPARFSGSGSGTDYTLTISSLEPEDFAVYYCQQWSSNPPTFGGGTKLEIK

Kd [5]: 2.6 nM
B7: Antibody 5 (antibody, V domains shown)
VH: QVQLQESGPGLVKPSETLSLTCTVSGFSLTSYGIQWVRQPPGKGLEWIGVIWAGGSTNYNSALMSRVTISKDNSKSQFSLKLSSVTAADTAVYYCARAYGYDGSWLAYWGQGTLVTVSS
VL: EIVLTQSPATLSLSPGERATLSCRASSSVSYMHWYQQKPGQAPRPLIFATSNLASGIPARFSGSGSGTDFTLTISSLEPEDFAVYYCQQWSSNPPTFGGGTKLEIK

Kd [5]: 1.1 nM
B8: Antibody 4 (antibody, V domains shown)
VH: QVQLQESGPGLVKPSETLSLTCTVSGFSLTSYGIQWIRQPPGKGLEWIGVIWAGGSTNYNSALMSRVTISKDNSKNQFSLKLSSVTAADTAVYYCARAYGYDGSWLAYWGQGTLVTVSS
VL: QIQLTQSPSSLSASVGDRVTITCRASSSVSYMHWYQQKPGKSPKPLIFATSNLASGVPSRFSGSGSGTDYTLTISSLQPEDFATYYCQQWSSNPPTFGGGTKLEIK

Kd [1]: 10.2 nM
B9: Antibody 11 (antibody, V domains shown)
VH: QVQLVESGGGVVQPGGSLRLSCAVSGFSLTSYGIQWVRQAPGKGLEWVSVIWAGGSTNYNSALMSRFTISKDNSKSTLYLQMNSLRAEDTAVYYCARAYGYDGSWLAYWGQGTLVTVSS
VL: DIQMTQSPSSLSASVGDRVTITCRASSSVSYMHWYQQKPGKAPKPLIFATSNLASGVPSRFSGSGSGTDYTLTISSLQPEDFATYYCQQWSSNPPTFGGGTKLEIK
